Blank lines part the entries; values can stand above or below the binder they belong to.
Tests used:
[1] = target: T1, mouse IL-2Rγ, recombinant protein (mouse, UniProt P34902 23-263, limits assumed); experiment: P.E. binding ELISA
T1 sequence (looked up): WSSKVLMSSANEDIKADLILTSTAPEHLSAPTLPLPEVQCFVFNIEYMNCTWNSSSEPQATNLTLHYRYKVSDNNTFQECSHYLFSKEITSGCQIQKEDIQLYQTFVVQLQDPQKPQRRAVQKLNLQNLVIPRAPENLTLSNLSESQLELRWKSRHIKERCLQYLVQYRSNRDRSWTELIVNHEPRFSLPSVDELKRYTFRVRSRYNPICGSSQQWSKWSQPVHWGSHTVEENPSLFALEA
Method in brief: (§1)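 Plates were coated overnight at 4° C with human or mouse IL-2R chain protein, and free sites blocked for 1 hour in 4% Marvel in PBS. Periplasmic extracts diluted 1:5 in 1% Marvel/PBS then bound for 1 hour, with specificity assessed from 450 nm absorbance relative to negative controls.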

[2] = target: T2, human common cytokine receptor γ-chain (γc; IL-2Rγ; CD132), recombinant protein (human, UniProt P31785 23-262); experiment: P.E. binding ELISA
T2 construct: also called human IL-2R subunit CD132
T2 sequence: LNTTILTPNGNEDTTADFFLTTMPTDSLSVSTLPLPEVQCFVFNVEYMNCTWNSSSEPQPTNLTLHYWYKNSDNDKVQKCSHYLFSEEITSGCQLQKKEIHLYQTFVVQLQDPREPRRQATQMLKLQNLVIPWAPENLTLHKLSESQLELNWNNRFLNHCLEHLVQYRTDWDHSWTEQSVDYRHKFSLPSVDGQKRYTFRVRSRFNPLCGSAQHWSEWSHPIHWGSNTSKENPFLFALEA
Method in brief: as §1

[3] = target: T1, mouse IL-2Rγ, recombinant protein; experiment: P.E. off-rate SPR
Method in brief: (§2)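 First, the IL-2R protein is immobilised via amine coupling in acetate buffer to roughly 2500 RU on a CM5 sensor chip. Next, the VHH extract is loaded at 30 uL/min. Finally, dissociation is recorded for 120s.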

[4] = target: T2, human common cytokine receptor γ-chain …; experiment: P.E. off-rate SPR
Method in brief: as §2

[5] = target: T3, cynomolgus monkey IL-2Rγ/CD132 subunit (cynomolgus monkey, UniProt A0A2K5VGJ6 23-262); experiment: ELISA, bivalent; EC50 cyno vs human subunit
T3 construct: also called Cyno IL-2R subunit
T3 sequence: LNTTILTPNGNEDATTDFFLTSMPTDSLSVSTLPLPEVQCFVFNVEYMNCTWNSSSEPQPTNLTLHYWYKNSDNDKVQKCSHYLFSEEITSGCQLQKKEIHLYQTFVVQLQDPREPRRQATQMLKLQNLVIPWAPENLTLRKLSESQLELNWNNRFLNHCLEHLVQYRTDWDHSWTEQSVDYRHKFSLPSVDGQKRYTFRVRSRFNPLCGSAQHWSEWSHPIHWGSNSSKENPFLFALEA
Protocol: (§3) Monospecific monovalent and bivalent IL-2Rα-, IL-2Rβ- and IL-2Rγ-specific antibodies that were selected on human IL-2R subunits, were evaluated for their cross-reactivity in an ELISA. Human and cynomolgus monkey receptor subunits (Acrobiosystems, KactusBiosystems) were coated at 1 μg/mL in PBS (pH 7.4) in a Maxisorp plate (Nunc) and incubated overnight at 4° C. The plates were further washed with PBS-Tween pH 7.4 and incubated with 1% cascin/PBS-Tween blocking solution for 1 hour shaking at 400 rpm. Subsequently, the plate was washed three times with PBS-Tween pH 7.4, after which the test antibodies diluted in 0.1% casein/PBS-Tween were added to the plate and incubated for 1 hour. The plate was again washed three times, after which goat anti-human IgG Fc (HRP) detection antibody (abcam) was added to the plate and incubated for 30 min. The colouring reaction was performed with TMB (Sigma-Aldrich) and stopped with 0.5N H₂SO₄.
(§4) Absorbance was measured at 450 nm with the reference wavelength of 620 nm using spectrophotometer. Final analysis and graphic output were performed with GraphPad Prism version 8 (GraphPad Software). The dose-response binding curves were fit to a nonlinear regression model (log (agonist) vs. response with a variable slope (four parameters)).

[6] = target: T2, human common cytokine receptor γ-chain …; experiment: ELISA, bivalent VHH-hFc
Protocol: as §3, §4

[7] = target: T3, cynomolgus monkey IL-2Rγ/CD132 subunit; experiment: ELISA, bivalent VHH-hFc
Protocol: as §3, §4

[8] = target: T4, human IL-2Rγ (common cytokine receptor γ-chain) (human, UniProt P31785 23-262, limits assumed); experiment: SPR off-rate ranking, periplasmic extract over immobilised human IL-2Rγ
T4 construct: Recombinant human IL-2Rγ protein coated on the ELISA plate or immobilised on the CM5 chip; also called hu IL-2R; CD132
T4 sequence: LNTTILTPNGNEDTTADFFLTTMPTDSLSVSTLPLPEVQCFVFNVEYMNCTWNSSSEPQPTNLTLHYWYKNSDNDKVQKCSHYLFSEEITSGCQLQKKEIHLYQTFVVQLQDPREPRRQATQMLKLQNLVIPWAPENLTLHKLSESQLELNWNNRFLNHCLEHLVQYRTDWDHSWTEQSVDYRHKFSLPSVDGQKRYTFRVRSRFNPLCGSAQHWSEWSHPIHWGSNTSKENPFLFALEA
Protocol: (§5) SPR was performed to determine dissociation rates using Biacore 3000 instrument (GE Healthcare). Briefly, human and mouse IL-2R proteins were immobilized on carboxylmethyl dextran sensor chip (CM5) at approximately 2500 RUs using amine coupling in acetate buffer (GE Healthcare). The VHH-containing P.E. were loaded with a flow rate of 30 uL/min and the off-rates were measured over a 120s period.

[9] = target: T4, human IL-2Rγ (common cytokine receptor …); experiment: binding ELISA, periplasmic extract on coated human IL-2Rγ
Protocol: (§6) In a binding ELISA, human or mouse IL-2Rα, IL-2Rβ and IL-2Rγ proteins were coated directly on maxisorp microtiter plates overnight at 4° C. Free binding sites were blocked using 4% Marvel in PBS for 1 hour. Next, 1:5 dilution of P.E. in 1% Marvel/PBS were added to wells and incubated for 1 hour. […] Binding specificity was determined based on O.D. at 450 nm values compared to negative controls.

mouse IL-2Rγ [10] = target: T5, mouse IL-2Rγ (mouse, UniProt P34902 23-263, limits assumed); experiment: binding ELISA, periplasmic extract on coated mouse IL-2Rγ
T5 construct: Recombinant mouse IL-2Rγ protein coated on the ELISA plate or immobilised on the CM5 chip; also called mo IL-2R
T5 sequence (looked up): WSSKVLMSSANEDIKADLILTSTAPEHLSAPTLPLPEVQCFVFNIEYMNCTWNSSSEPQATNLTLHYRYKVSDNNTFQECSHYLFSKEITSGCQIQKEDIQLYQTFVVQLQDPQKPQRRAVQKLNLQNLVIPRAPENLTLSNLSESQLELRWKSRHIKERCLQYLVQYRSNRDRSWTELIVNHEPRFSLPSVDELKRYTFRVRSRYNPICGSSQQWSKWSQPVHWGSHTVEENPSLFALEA
Protocol: as §6

mouse IL-2Rγ [11] = target: T5, mouse IL-2Rγ; experiment: SPR off-rate ranking, periplasmic extract over immobilised mouse IL-2Rγ
Protocol: as §5

B1: 28-MP04D02 VHH (periplasmic extract) (VHH)
VHH: QVQLVESGGGLVQAGGSLRLSCAASGRTLSRYAMGWFRQAPGKEREFVTANSWGGDTYYADSVQGRFTFSRDNAKNTVYLQMNSLQPEDTAVYYCAAAPTSFATTAYSGSNSYAYWGQGTQVTVSS
notes: soluble VHH in periplasmic extract
OD450 nm [1]: 0.054 OD450 nm
OD450 nm [2]: 0.782 OD450 nm
koff [3]: 0.319 s⁻¹
koff [4]: 0.0088 s⁻¹

B2: 37-MP07F09 VHH-hFc, monospecific bivalent (Fc fusion)
chain: QVQLVESGGGLVQAGGSLRLSCAASGRTLSRYAMGWFRQAPGKEREYVAIDSWGGDTFYADSVEGRFTFSRDNAKNEVYLQMNSLQPEDTAVYYCAGAPTSFATTAYSSSNSYRYWGQGTQVTVSS
notes: IgG1 Fc LALA-PG; not shown: human IgG1 CH2 and CH3 domains (Fc)
Fold change [5]: 1 fold
EC50 [6]: 137 pM
EC50 [7]: 141 pM

B6: 35-MP07G01 VHH-hFc, monospecific bivalent (Fc fusion)
chain: QVQLQESGGGLVQGGGSLRLSCAASGGIFSSYAMGWFRQAPGKEREFVAAISRSGRSTNYADSVKGRFTISRDNAKSTVYLQMNSLKPEETAVYYCAAGRYYNSAYDPSPGDFGSWGHGTQVTVSS
notes: as for B2
binding result [6]: no binding
binding result [7]: no binding

B7: FJ1427_P035MP07F12 (VHH)
VHH: EVQLVESGGGLVQAGDSLRLSCVASGRTLSRCAMGWFRKAPGKEREYVAISSWGGDTFYEDSVEGRFTFSRDNAKNTVYLQMNSLRPEDTAVYYCAAAPTSFATTAYSSSNSYAYWGQGTQVTVSS
notes: Tested as soluble VHH fragment in periplasmic extract (P.E.); also called Clone nr; 670
koff [8]: 0.00197 s⁻¹
P.E. binding ELISA OD450 [9]: 0.823 OD450 nm
P.E. binding ELISA OD450 (mouse IL-2Rγ [10]): 0.341 OD450 nm
koff (mouse IL-2Rγ [11]): 0.00792 s⁻¹

Second part, the binder after the results:

koff [8]: 0.00197 s⁻¹
P.E. binding ELISA OD450 [9]: 0.426 OD450 nm
P.E. binding ELISA OD450 (mouse IL-2Rγ [10]): 0.071 OD450 nm
koff (mouse IL-2Rγ [11]): 0.0146 s⁻¹
B3: FJ1427_P035MP07C12 (VHH)
VHH: QVQLVESGGGLVQAGGSLRLSCAASGRSLSRDAMGWFRQAPGKEREFVAVMSWGGDTFYTDSVEGRFTFSRDNAKNAVYLEMNDLQPEDTAVYYCAAAPTSFATTAYSSSNSYSYWGRGTQVTVSS
notes: Tested as soluble VHH fragment in periplasmic extract (P.E.); also called Clone nr

OD450 nm [2]: 0.407 OD450 nm
koff [4]: 0.0616 s⁻¹
B4: 32-MP04A08 VHH (periplasmic extract) (VHH)
VHH: QVQLVESGGGLVQAGGSLRLSCAASGRTFGSTAVGWFRQVPGKEREFVSAINRSGSATTYADSVKGRFTISRDNAKNTVYLQMNSLTPEDTGVYYCAADSLPYGRPYYFQRSAGEYDYWGQGTQVTVSS
notes: as for B1

EC50 [6]: 140 pM
binding result [7]: no binding
B5: 32-MP04A08 VHH-hFc, monospecific bivalent (Fc fusion)
chain: QVQLVESGGGLVQAGGSLRLSCAASGRTFGSTAVGWFRQVPGKEREFVSAINRSGSATTYADSVKGRFTISRDNAKNTVYLQMNSLTPEDTGVYYCAADSLPYGRPYYFQRSAGEYDYWGQGTQVTVSS
notes: as for B2

OD450 nm [2]: 0.362 OD450 nm
koff [4]: 0.00131 s⁻¹
B8: 27-MP04G01 VHH (periplasmic extract) (VHH)
VHH: QVQLVESGGGLVQAGGSLTLSCAAPGRTFGTDVVGWFRQAPGKEREFVASISRSGDGIYYDDSVKGRFTISRNNAWNTVNLQMNSLKVEDTAVYYCAAGDGWSTYDYWGQGTQVTVSS
notes: as for B1

Fold change [5]: 1.1 fold
EC50 [6]: 131 pM
EC50 [7]: 147 pM
B9: 27-MP04G01 VHH-hFc, monospecific bivalent (Fc fusion)
chain: QVQLVESGGGLVQAGGSLTLSCAAPGRTFGTDVVGWFRQAPGKEREFVASISRSGDGIYYDDSVKGRFTISRNNAWNTVNLQMNSLKVEDTAVYYCAAGDGWSTYDYWGQGTQVTVSS
notes: as for B2

— patent US20240409645A1 (DUALYX, published 2024)
